In patent US10568950B1, “Peptides, combination of peptides and scaffolds for use in immunotherapeutic treatment of various cancers” (Immatics Biotechnologies GmbH, priority 2015, dated 2020):

Biological target: HLA-A*02 (Homo sapiens, UniProt P04439, D140Y/D185E/D98H/E176V/E277Q/G131W/G231S/I119V/I121R/I166T/I218V/N151K/N90K/P208A/P217A/Q86G/Q94H/R138H/R169H)
Test: MHC binding assay: UV-ligand exchange, beta2m ELISA (peptide exchange yield)
Conditions: binding to HLA-A*02, β2m ELISA
Description: Candidate peptides for T cell based therapies according to the present invention were further tested for their MHC binding capacity (affinity). The individual peptide-MHC complexes were produced by UV-ligand exchange, where a UV-sensitive peptide is cleaved upon UV-irradiation, and exchanged with the peptide of interest as analyzed. Only peptide candidates that can effectively bind and stabilize the peptide-receptive MHC molecules prevent dissociation of the MHC complexes. To determine the yield of the exchange reaction, an ELISA was performed based on the detection of the light chain (β2m) of stabilized MHC complexes. The assay was performed as generally described in Rodenko et al. (Rodenko et al., 2006).
96 well MAXISorp plates (NUNC) were coated over night with 2 ug/ml streptavidin in PBS at room temperature, washed 4× and blocked for 1 h at 37° C. in 2% BSA containing blocking buffer. […] Peptide-MHC monomers of the UV-exchange reaction were diluted 100 fold in blocking buffer. Samples were incubated for 1 h at 37° C., washed four times, incubated with 2 ug/ml HRP conjugated anti-βm for 1 h at 37° C., washed again and detected with TMB solution that is stopped with […]. Absorption was measured at 450 nm. Candidate peptides that show a high exchange yield (preferably higher than 50%, most preferred higher than 75%) are generally preferred for a generation and production of antibodies or fragments thereof, and/or T cell receptors or fragments thereof, as they show sufficient avidity to the MHC molecules and prevent dissociation of the MHC complexes.

Substance	Peptide exchange (MHC class I binding score, peptide exchange yield)
324 (AIFDFCPSV; listed as Homo sapiens) [compound 324]	++++ (>= 75% = ++++)
39 (ALMAVVSGL; listed as Homo sapiens) [compound 39]	+++ (50%-75% = +++)
46 (SLAKHGIVAL; listed as Homo sapiens) [compound 46]	+++ (50%-75% = +++)
90 (GAVAEEVLSSI; listed as Homo sapiens) [compound 90]	+ (<20% = +)
326 (SLLPLVWKI; listed as Homo sapiens) [compound 326]	+++ (50%-75% = +++)
84 (FLEEEITRV; listed as Homo sapiens) [compound 84]	+++ (50%-75% = +++)
3 (TLLGKQVTL; listed as Homo sapiens) [compound 3]	+++ (50%-75% = +++)
66 (FITDFYTTV; listed as Homo sapiens) [compound 66]	+++ (50%-75% = +++)
22 (MLSDLTLQL; listed as Homo sapiens) [compound 22]	++++ (>= 75% = ++++)
41 (FVLPLVVTL; listed as Homo sapiens) [compound 41]	+++ (50%-75% = +++)
24 (FLWNGEDSAL; listed as Homo sapiens) [compound 24]	+++ (50%-75% = +++)
67 (GVIETVTSL; listed as Homo sapiens) [compound 67]	++ (20%-49% = ++)
38 (KMQEDLVTL; listed as Homo sapiens) [compound 38]	+++ (50%-75% = +++)
18 (YVLNEEDLQKV; listed as Homo sapiens) [compound 18]	+++ (50%-75% = +++)
13 (VLRDNIQGI; listed as Homo sapiens) [compound 13]	+++ (50%-75% = +++)
58 (ALDDSLTSL; listed as Homo sapiens) [compound 58]	++ (20%-49% = ++)
65 (KLDGICWQV; listed as Homo sapiens) [compound 65]	+++ (50%-75% = +++)
88 (ILLNTEDLASL; listed as Homo sapiens) [compound 88]	+++ (50%-75% = +++)
48 (TLDHKPVTV; listed as Homo sapiens) [compound 48]	++ (20%-49% = ++)
40 (SLLALPQDLQA; listed as Homo sapiens) [compound 40]	+++ (50%-75% = +++)
20 (ALDGHLYAI; listed as Homo sapiens) [compound 20]	+++ (50%-75% = +++)
83 (ELLEYLPQL; listed as Homo sapiens) [compound 83]	+++ (50%-75% = +++)
340 (SVAKTILKR; listed as Homo sapiens) [compound 340]	++ (20%-49% = ++)

Substance	Peptide exchange (MHC class I binding score, peptide exchange yield)
37 (ALINDILGELVKL; listed as Homo sapiens) [compound 37]	+++ (50%-75% = +++)
55 (IASAIVNEL; listed as Homo sapiens) [compound 55]	++ (20%-49% = ++)
327 (SIGDIFLKY; listed as Homo sapiens) [compound 327]	+++ (50%-75% = +++)
61 (HLPDFVKQL; listed as Homo sapiens) [compound 61]	++ (20%-49% = ++)
53 (SLLSHVIVA; listed as Homo sapiens) [compound 53]	+++ (50%-75% = +++)
54 (FINPKGNWLL; listed as Homo sapiens) [compound 54]	+++ (50%-75% = +++)
91 (SSLEPQIQPV; listed as Homo sapiens) [compound 91]	+ (<20% = +)
62 (SLFNQEVQI; listed as Homo sapiens) [compound 62]	+++ (50%-75% = +++)
33 (LLLPLLPPLSPSLG; listed as Homo sapiens) [compound 33]	+++ (50%-75% = +++)
11 (GVLKVFLENV; listed as Homo sapiens) [compound 11]	++ (20%-49% = ++)
60 (FLIDTSASM; listed as Homo sapiens) [compound 60]	++ (20%-49% = ++)
335 (VLLAAGPSAA; listed as Homo sapiens) [compound 335]	++ (20%-49% = ++)
64 (GLSSSSYEL; listed as Homo sapiens) [compound 64]	++ (20%-49% = ++)
93 (SLLTQPIFL; listed as Homo sapiens) [compound 93]	+++ (50%-75% = +++)
87 (YLTEVFLHVV; listed as Homo sapiens) [compound 87]	+++ (50%-75% = +++)
19 (TLLPTVLTL; listed as Homo sapiens) [compound 19]	+++ (50%-75% = +++)
49 (LLDESKLTL; listed as Homo sapiens) [compound 49]	+++ (50%-75% = +++)
63 (TLSSERDFAL; listed as Homo sapiens) [compound 63]	+ (<20% = +)
323 (ILSVVNSQL; listed as Homo sapiens) [compound 323]	+++ (50%-75% = +++)
338 (LLYDGKLSSA; listed as Homo sapiens) [compound 338]	++ (20%-49% = ++)
56 (KILDLTRVL; listed as Homo sapiens) [compound 56]	++ (20%-49% = ++)
32 (ILADEAFFSV; listed as Homo sapiens) [compound 32]	+++ (50%-75% = +++)
23 (AQTVVVIKA; listed as Homo sapiens) [compound 23]	+ (<20% = +)
